# Experimental data reported in patent US20140193430A1.
# How the values were obtained:
# [1] = molecular target: recombinant KIR2DL1 protein (entire extracellular domain, produced in E. coli, refolded) (human) (UniProt P43626); assay: BIAcore, direct binding of second Ab to KIR2DL1 chip (field of first Ab EB6)
# [2] = molecular target: recombinant KIR2DL1 protein (entire extracellular domain, produced in E. coli, refolded) (human) (UniProt P43626); assay: BIAcore competition on KIR2DL1 chip; first Ab EB6, second Ab (competitor) 1-7F9
# [3] = molecular target: recombinant KIR2DL1 protein (entire extracellular domain, produced in E. coli, refolded) (human) (UniProt P43626); assay: BIAcore, second Ab on KIR2DL1 chip with first Ab (competitor) 1-6F1 bound
# [4] = molecular target: recombinant KIR2DL1 protein (entire extracellular domain, produced in E. coli, refolded) (human) (UniProt P43626); assay: BIAcore competition on KIR2DL1 chip; first Ab EB6, second Ab (competitor) DF200
# [5] = molecular target: recombinant KIR2DL1 protein (entire extracellular domain, produced in E. coli, refolded) (human) (UniProt P43626); assay: BIAcore, second Ab on KIR2DL1 chip with first Ab (competitor) EB6 bound
# [6] = molecular target: recombinant KIR2DL1 protein (entire extracellular domain, produced in E. coli, refolded) (human) (UniProt P43626); assay: BIAcore competition on KIR2DL1 chip; first Ab EB6, second Ab (competitor) 1-4F1
# [7] = molecular target: recombinant KIR2DL1 protein (entire extracellular domain, produced in E. coli, refolded) (human) (UniProt P43626); assay: BIAcore competition on KIR2DL1 chip; first Ab EB6, second Ab (competitor) 1-6F1
# [8] = molecular target: recombinant KIR2DL1 protein (entire extracellular domain, produced in E. coli, refolded) (human) (UniProt P43626); assay: BIAcore competition on KIR2DL1 chip; first Ab EB6, second Ab (competitor) EB6
# [9] = molecular target: recombinant KIR2DL1 protein (entire extracellular domain, produced in E. coli, refolded) (human) (UniProt P43626); assay: BIAcore competition on KIR2DL1 chip; first Ab EB6, second Ab (competitor) Pan2D
# [10] = molecular target: recombinant KIR2DL1 protein (entire extracellular domain, produced in E. coli, refolded) (human) (UniProt P43626); assay: BIAcore, direct binding of second Ab to KIR2DL1 chip (field of first Ab 1-7F9)
# [11] = molecular target: recombinant KIR2DL1 protein (entire extracellular domain, produced in E. coli, refolded) (human) (UniProt P43626); assay: BIAcore, second Ab on KIR2DL1 chip with first Ab (competitor) 1-7F9 bound
# [12] = molecular target: recombinant KIR2DL1 protein (entire extracellular domain, produced in E. coli, refolded) (human) (UniProt P43626); assay: BIAcore, direct binding of second Ab to KIR2DL1 chip (field of first Ab 1-6F1)
# [13] = molecular target: recombinant KIR2DL3 protein (entire extracellular domain, produced in E. coli, refolded) (human) (UniProt P43628); assay: BIAcore competition on KIR2DL3 chip; first Ab Pan2D, second Ab (competitor) gl183
# [14] = molecular target: recombinant KIR2DL3 protein (entire extracellular domain, produced in E. coli, refolded) (human) (UniProt P43628); assay: BIAcore competition on KIR2DL3 chip; first Ab Pan2D, second Ab (competitor) 1-6F1
# [15] = molecular target: recombinant KIR2DL3 protein (entire extracellular domain, produced in E. coli, refolded) (human) (UniProt P43628); assay: BIAcore, direct binding of second Ab to KIR2DL3 chip (field of first Ab 1-6F5)
# [16] = molecular target: recombinant KIR2DL1 protein (entire extracellular domain, produced in E. coli, refolded) (human) (UniProt P43626); assay: BIAcore, second Ab on KIR2DL1 chip with first Ab (competitor) 1-6F5 bound
# [17] = molecular target: recombinant KIR2DL1 protein (entire extracellular domain, produced in E. coli, refolded) (human) (UniProt P43626); assay: BIAcore competition on KIR2DL1 chip; first Ab Pan2D, second Ab (competitor) 1-4F1
# [18] = molecular target: recombinant KIR2DL3 protein (entire extracellular domain, produced in E. coli, refolded) (human) (UniProt P43628); assay: BIAcore, second Ab on KIR2DL3 chip with first Ab (competitor) 1-4F1 bound
# [19] = molecular target: recombinant KIR2DL1 protein (entire extracellular domain, produced in E. coli, refolded) (human) (UniProt P43626); assay: BIAcore competition on KIR2DL1 chip; first Ab Pan2D, second Ab (competitor) DF200
# [20] = molecular target: recombinant KIR2DL1 protein (entire extracellular domain, produced in E. coli, refolded) (human) (UniProt P43626); assay: BIAcore competition on KIR2DL1 chip; first Ab Pan2D, second Ab (competitor) EB6
# [21] = molecular target: recombinant KIR2DL3 protein (entire extracellular domain, produced in E. coli, refolded) (human) (UniProt P43628); assay: BIAcore competition on KIR2DL3 chip; first Ab Pan2D, second Ab (competitor) 1-6F5
# [22] = molecular target: KIR2DL1(R131W)-hFc (human) (UniProt P43626); assay: ELISA, KIR2DL1(R131W)-hFc captured via goat anti-human antibodies, mAb titrated, peroxidase anti-mouse, A450 [panel pan2D]
# [23] = molecular target: immobilized KIR2DS1 (UniProt Q14954); assay: BIAcore, direct binding of second Ab to KIR2DS1 chip (field of first Ab 1-7F9)
# [24] = molecular target: recombinant KIR2DL3 protein (entire extracellular domain, produced in E. coli, refolded) (human) (UniProt P43628); assay: BIAcore, direct binding of second Ab to KIR2DL3 chip (field of first Ab 1-4F1)
# [25] = molecular target: immobilized KIR2DS1 (UniProt Q14954); assay: BIAcore competition on KIR2DS1 chip; first Ab Pan2D, second Ab (competitor) 1-7F9
# [26] = molecular target: recombinant KIR2DL3 protein (entire extracellular domain, produced in E. coli, refolded) (human) (UniProt P43628); assay: BIAcore, second Ab on KIR2DL3 chip with first Ab (competitor) 1-7F9 bound
# [27] = molecular target: recombinant KIR2DL3 protein (entire extracellular domain, produced in E. coli, refolded) (human) (UniProt P43628); assay: BIAcore, direct binding of second Ab to KIR2DL3 chip (field of first Ab 1-6F1)
# [28] = molecular target: immobilized KIR2DS1 (UniProt Q14954); assay: BIAcore competition on KIR2DS1 chip; first Ab Pan2D, second Ab (competitor) 1-4F1
# [29] = molecular target: recombinant KIR2DL1 protein (entire extracellular domain, produced in E. coli, refolded) (human) (UniProt P43626); assay: BIAcore competition on KIR2DL1 chip; first Ab Pan2D, second Ab (competitor) 1-6F5
# [30] = molecular target: recombinant KIR2DL1 protein (entire extracellular domain, produced in E. coli, refolded) (human) (UniProt P43626); assay: BIAcore competition on KIR2DL1 chip; first Ab Pan2D, second Ab (competitor) 1-6F1
# [31] = molecular target: recombinant KIR2DL1 protein (entire extracellular domain, produced in E. coli, refolded) (human) (UniProt P43626); assay: BIAcore competition on KIR2DL1 chip; first Ab Pan2D, second Ab (competitor) 1-7F9
# [32] = molecular target: recombinant KIR2DL1 protein (entire extracellular domain, produced in E. coli, refolded) (human) (UniProt P43626); assay: BIAcore, direct binding of second Ab to KIR2DL1 chip (field of first Ab 1-6F5)
# [33] = molecular target: recombinant KIR2DL3 protein (entire extracellular domain, produced in E. coli, refolded) (human) (UniProt P43628); assay: BIAcore competition on KIR2DL3 chip; first Ab Pan2D, second Ab (competitor) DF200
# [34] = molecular target: recombinant KIR2DL3 protein (entire extracellular domain, produced in E. coli, refolded) (human) (UniProt P43628); assay: BIAcore, second Ab on KIR2DL3 chip with first Ab (competitor) 1-6F5 bound
# [35] = molecular target: recombinant KIR2DL3 protein (entire extracellular domain, produced in E. coli, refolded) (human) (UniProt P43628); assay: BIAcore competition on KIR2DL3 chip; first Ab Pan2D, second Ab (competitor) 1-7F9
# [36] = molecular target: recombinant KIR2DL3 protein (entire extracellular domain, produced in E. coli, refolded) (human) (UniProt P43628); assay: BIAcore competition on KIR2DL3 chip; first Ab Pan2D, second Ab (competitor) 1-4F1
# [37] = molecular target: recombinant KIR2DL3 protein (entire extracellular domain, produced in E. coli, refolded) (human) (UniProt P43628); assay: BIAcore, direct binding of second Ab to KIR2DL3 chip (field of first Ab 1-7F9)
# [38] = molecular target: immobilized KIR2DS1 (UniProt Q14954); assay: BIAcore, second Ab on KIR2DS1 chip with first Ab (competitor) 1-7F9 bound
# [39] = molecular target: recombinant KIR2DL3 protein (entire extracellular domain, produced in E. coli, refolded) (human) (UniProt P43628); assay: BIAcore, second Ab on KIR2DL3 chip with first Ab (competitor) 1-6F1 bound
# [40] = molecular target: immobilized KIR2DS1 (UniProt Q14954); assay: BIAcore competition on KIR2DS1 chip; first Ab Pan2D, second Ab (competitor) DF200
substance,measurement,setting,value
EB6 (IgG1 anti KIR2DL1) (antibody),"RU, direct binding (RU1)",[1],460 RU
same,% inhibition of second Ab binding by first Ab,[2],65%
same,"RU, binding with first Ab present (RU2)",[3],320 RU
same,% inhibition of second Ab binding by first Ab,[4],60%
same,"RU, binding with first Ab present (RU2)",[5],200 RU
same,% inhibition of second Ab binding by first Ab,[6],48%
same,% inhibition of second Ab binding by first Ab,[7],23%
same,% inhibition of second Ab binding by first Ab,[8],57%
same,% inhibition of second Ab binding by first Ab,[9],40%
same,"RU, direct binding (RU1)",[10],460 RU
same,"RU, binding with first Ab present (RU2)",[11],180 RU
same,"RU, direct binding (RU1)",[12],260 RU
monoclonal antibody NKVSF1,% inhibition of second Ab binding by first Ab,[13],85%
same,% inhibition of second Ab binding by first Ab,[14],8%
same,"RU, direct binding (RU1)",[15],990 RU
same,"RU, binding with first Ab present (RU2)",[3],440 RU
same,"RU, binding with first Ab present (RU2)",[16],440 RU
same,% inhibition of second Ab binding by first Ab,[17],95%
same,"RU, binding with first Ab present (RU2)",[18],890 RU
same,% inhibition of second Ab binding by first Ab,[19],90%
same,% inhibition of second Ab binding by first Ab,[20],90%
same,% inhibition of second Ab binding by first Ab,[21],18%
same,EC50 (read off the curve),[22],20 nM
same,"RU, direct binding (RU1)",[23],1350 RU
same,"RU, direct binding (RU1)",[24],2400 RU
same,% inhibition of second Ab binding by first Ab,[25],45%
same,"RU, binding with first Ab present (RU2)",[26],830 RU
same,"RU, direct binding (RU1)",[27],990 RU
same,"RU, direct binding (RU1)",[10],545 RU
same,% inhibition of second Ab binding by first Ab,[28],100%
same,% inhibition of second Ab binding by first Ab,[29],13%
same,% inhibition of second Ab binding by first Ab,[30],12%
same,% inhibition of second Ab binding by first Ab,[31],2%
same,"RU, direct binding (RU1)",[32],475 RU
same,% inhibition of second Ab binding by first Ab,[33],95%
same,"RU, binding with first Ab present (RU2)",[34],950 RU
same,"RU, binding with first Ab present (RU2)",[11],534 RU
same,% inhibition of second Ab binding by first Ab,[35],15%
same,% inhibition of second Ab binding by first Ab,[36],68%
same,"RU, direct binding (RU1)",[37],870 RU
same,"RU, binding with first Ab present (RU2)",[38],1200 RU
same,"RU, direct binding (RU1)",[12],475 RU
same,"RU, binding with first Ab present (RU2)",[39],1090 RU
same,% inhibition of second Ab binding by first Ab,[40],100%
